Changes are numbered by the printed parent chain. In names and notes the source's numbering stands.
B1: reference antibody (full-length bivalent, monospecific, agonistic anti-CD277 antibody; heavy chain of SEQ ID NO:94, light chain of SEQ ID NO:93) (antibody, human IgG1, kappa, L234A L235A, V domains shown)
VH: QVQLQQSGAELVKPGASVKLSCKASGYTFTRYYLYWVKQRPGQGLEWIGEINPNNGGTKFNEKFKSKATLTVDKSSRTTYIQLSSLTSEDSAVYYCSREDDYDGTPDAMDYWGQGTAVTVSS
VL: DIQMNQSPSSLSASLGDTITITCHASQNINLWLSWYQQRPGNIPKLLIYRASNLHTGVPSRFSGSGSATGFTLTISSLQPEDIATYYCQQGHSYPYTFGGGTKLDIKR
notes: also called parent antibody
B2: Antibody 47 (anti-CD277; VL parent, VH CDR2 N185S, K190N) (antibody, V domains shown)
VH: B1 VH with N54S, K59N
VL: DIQMNQSPSSLSASLGDTITITCHASQNINLWLSWYQQRPGNIPKLLIYRASNLHTGVPSRFSGSGSATGFTLTISSLQPEDIATYYCQQGHSYPYTFGGGTKLDIK
notes: also called EvB#47; EvB#23
B3: Antibody 52 (anti-CD277; VL CDR1 L31V, VH CDR2 N185S, K190N) (antibody, V domains shown)
VH: B1 VH with N54S, K59N
VL: B2 VL with L31V
notes: Its constructs use human IgG1 with L234A/L235A and human kappa; also called EvB#52; EvB#29

Molecular target: T1, recombinant CD277 (human, UniProt O00481 30-254, limits assumed)
T1 construct: It gives no isoform (BTN3A1, A2 or A3), construct limits or supplier; also called BTN3A; Butyrophilin 3 family member BTN3A
Assay: SPR (Biacore), recombinant CD277 amine-coupled to CM5 chip, antibody as analyte, 1:1 Langmuir fit
Experimental: SPR assay was performed according to the state of the art. In short, recombinant CD277 was immobilized to the surface of a Biacore CM5 optical sensor chip by covalent EDC/NHS coupling following the Biacore amine coupling kit protocol. Antibody samples were applied as analytes in serial dilution allowing standardized comparison of all antibodies binding to the identical target molecule surface. Kinetic analysis data are based on 1:1 Langmuir curve fitting model and mean Langmuir on-rates, off-rates and KD values: see table 5.

T1 sequence (O00481 30-254 limits assumed): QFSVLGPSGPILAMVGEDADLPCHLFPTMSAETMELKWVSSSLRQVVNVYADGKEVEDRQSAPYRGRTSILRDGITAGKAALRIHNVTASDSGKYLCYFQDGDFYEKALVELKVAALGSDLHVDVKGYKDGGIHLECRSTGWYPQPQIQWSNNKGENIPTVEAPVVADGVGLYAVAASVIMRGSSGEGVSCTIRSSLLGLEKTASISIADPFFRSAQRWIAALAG

| Binder | Kd [µM] |
| --- | --- |
| B1 | 0.0028 |
| B2 | 0.0263 |
| B3 | 0.0139 |

Source: US20250163157A1 (Boehringer Ingelheim, published 2025)
